System: MBP-rAtCHE (Arabidopsis thaliana (homoeolog cloned from resynthesized A. thaliana x A. arenosa allotetraploid))
Assay: EMSA
Conditions: reference for normalization; 25 mM HEPES pH 7.5, 2.5 mM DTT, 75 mM KCl, 10% glycerol, 1.25 ng poly-dIdC, 10 nM (~15 fmol) DNA, on ice 20 min; 5% native PAGE

Question: For AtCCA1p, which binding signal (fold (reference for rAaCHE)) is on record?
Answer: 1

Reference: article PMC5366859
